Measurements as given in patent US9969780.

Key:
[1] = target: HIV-1 Tat protein (recombinant, native, biologically active) (HIV-1) (UniProt Q73370); assay: ELISA; plate coated with Tat, antibody used for detection
[2] = target: HIV-1 Tat protein (recombinant, native, biologically active) (HIV-1) (UniProt Q73370); assay: ELISA; wells coated with native Tat, antibody used for detection
[3] = target: oxidised Tat (HIV-1) (UniProt Q73370); assay: ELISA; wells coated with oxidised Tat, antibody used for detection
[4] = target: Tat (73-86) peptide (HIV-1); assay: ELISA; plate coated with Tat peptide, antibody used for detection
[5] = target: Tat (65-80) peptide (RGD sequence) (HIV-1); assay: as above
[6] = target: Tat (46-60) peptide (basic region-nuclear localisation signal) (HIV-1); assay: as above
[7] = target: Tat (56-70) peptide (glutamine-rich region) (HIV-1); assay: as above
[8] = target: Tat (1-20) peptide (N-terminal domain) (HIV-1); assay: as above
[9] = target: Tat (36-50) peptide (core region) (HIV-1); assay: as above
[10] = target: Tat (21-40) peptide (cysteine-rich region-transactivation domain) (HIV-1); assay: as above
[11] = target: Tat (83-102) peptide (C-terminal domain) (HIV-1); assay: as above
[12] = target: Tat (21-58) peptide (cysteine, core, and basic regions) (HIV-1); assay: as above
[13] = target: Tat-cys22 (transactivation mutant, cysteine 22 substituted by glycine) (HIV-1); assay: ELISA; wells coated with Tat-cys22, antibody used for detection
[14] = target: bovine serum albumin (bovine) (UniProt P02769); assay: ELISA; uncoated (BSA-blocked) well incubated with Tat, detected with anti-Tat
Sequence of bovine serum albumin (bovine) (P02769 25-607 limits assumed): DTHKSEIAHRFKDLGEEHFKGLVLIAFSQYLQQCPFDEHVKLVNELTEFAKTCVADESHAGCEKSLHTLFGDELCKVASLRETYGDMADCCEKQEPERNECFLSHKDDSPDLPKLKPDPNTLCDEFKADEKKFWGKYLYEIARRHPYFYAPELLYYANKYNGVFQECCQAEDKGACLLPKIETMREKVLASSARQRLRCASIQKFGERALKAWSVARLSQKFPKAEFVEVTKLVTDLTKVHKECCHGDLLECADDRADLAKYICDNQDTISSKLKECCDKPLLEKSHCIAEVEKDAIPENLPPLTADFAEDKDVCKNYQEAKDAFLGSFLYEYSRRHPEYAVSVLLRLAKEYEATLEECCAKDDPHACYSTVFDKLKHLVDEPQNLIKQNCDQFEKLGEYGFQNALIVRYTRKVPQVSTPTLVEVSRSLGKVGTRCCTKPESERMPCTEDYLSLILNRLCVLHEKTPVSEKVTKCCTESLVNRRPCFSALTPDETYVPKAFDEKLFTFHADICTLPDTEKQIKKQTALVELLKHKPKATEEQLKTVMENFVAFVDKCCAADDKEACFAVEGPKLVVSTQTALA

Question: Which ELISA signal [1] does the source give for CTR isot. (isotype control antibody) here?
Answer: 0.081

Question: And the ELISA signal [2]?
Answer: 0.051

Question: And the ELISA signal [3]?
Answer: 0.016

Question: What about the ELISA signal [4] of the same substance?
Answer: 0.019

Question: And the ELISA signal [5]?
Answer: 0

Question: What about the ELISA signal [6] of the same substance?
Answer: 0.063

Question: And the ELISA signal [7]?
Answer: 0

Question: And the ELISA signal [8]?
Answer: 0.006

Question: What about the ELISA signal [9] of the same substance?
Answer: 0

Question: What about the ELISA signal [10] of the same substance?
Answer: 0.082

Question: And the ELISA signal [11]?
Answer: 0

Question: What about the ELISA signal [12] of the same substance?
Answer: 0.108

Question: What about the ELISA signal [13] of the same substance?
Answer: 0.026

Question: With “HIV-1 Tat protein (recombinant, native, biologically active) (from UniProt Q73370 1-100)” as the substance, how does the ELISA OD [14] read?
Answer: 0.431 OD

Question: For “monoclonal anti-CCR5 antibody (Pharmingen), directed against the CCR5 second extracellular loop”, which ELISA signal [1] is on record?
Answer: 1.45

Question: And the ELISA signal [2]?
Answer: 1.24

Question: And the ELISA signal [3]?
Answer: 0.128

Question: What about the ELISA signal [4] of the same substance?
Answer: 0

Question: And the ELISA signal [5]?
Answer: 0

Question: What about the ELISA signal [6] of the same substance?
Answer: 0.466

Question: And the ELISA signal [7]?
Answer: 0.147

Question: What about the ELISA signal [8] of the same substance?
Answer: 0

Question: And the ELISA signal [9]?
Answer: 0

Question: And the ELISA signal [10]?
Answer: 0

Question: What about the ELISA signal [11] of the same substance?
Answer: 0

Question: What about the ELISA signal [12] of the same substance?
Answer: 3

Question: What about the ELISA signal [13] of the same substance?
Answer: 0.75
